# According to paper PMC2018643 (Nucleic Acids Research, 2007):
# B1: His(6)-Rrp47p (natural protein, S. cerevisiae, UniProt P38801 1-184, looked up)
# chain: MEDIEKIKPYVRSFSKALDELKPEIEKLTSKSLDEQLLLLSDERAKLELINRYAYVLSSLMFANMKVLGVKDMSPILGELKRVKSYMDKAKQYDNRITKSNEKSQAEQEKAKNIISNVLDGNKNQFEPSISRSNFQGKHTKFENDELAESTTTKIIDSTDHIRKASSKKSKRLDKVGKKKGGKK
# Target: the molecule itself
# Experiment: SEC
protein,measurement,value
B1,stoichiometry N,6
